Changes are numbered by the printed parent chain. Names may count otherwise.

Data set [1] deals with the molecule itself. Kind of data set: crystal structure; CrSAS-6 combined with a 2x molar excess of monobody, complex purified by SEC; sitting drop vapor diffusion at 18 °C.
Data set [2] deals with the molecule itself. Kind of data set: PORT-HS-AFM; CrSAS-6_NL adsorbed on mica, 11-16 nM (equilibrium) or 44 nM (assembly reaction); 150 mM KCl, 20 mM Tris-HCl pH 8.0; monobodies at 6.8 µM, 14.5 µM and 12.9 µM.

B1: CrSAS-6_N, N-terminal globular domain of Chlamydomonas reinhardtii SAS-6 (domain or fragment, UniProt A9CQL4 1-159, looked up)
chain: MPLLLDDGDPKAQTGFDLSTATTLFWRPVPVHVKQQDREDVLEELTFRILTGVAKQNHNLRILRIHISSDSDLFFLHTLEVSEEDFQSLKNDQGILVDFASFPGKIISLLEKCILAQPGDSPRFQAVLTIRGGESVFKIVEINDFKQLPHITLAFRPGN
notes: SAS-6 of Chlamydomonas reinhardtii, N-terminal globular head domain, residues 1-159 (the methods list the two ranges in the reverse order of the two names); source: E. coli BL21(DE3), purified (HisTrap, tag cleavage by protease, SEC); not shown: His6, N-terminal, cleaved; AVI-tag, N-terminal, cleaved
B1: in data set [1], the binding result was “binds”.

B2: CrSAS-6_NL, N-terminal head domain and the entire coiled-coil of Chlamydomonas reinhardtii SAS-6 (domain or fragment, UniProt A9CQL4 1-503, looked up)
chain: MPLLLDDGDPKAQTGFDLSTATTLFWRPVPVHVKQQDREDVLEELTFRILTGVAKQNHNLRILRIHISSDSDLFFLHTLEVSEEDFQSLKNDQGILVDFASFPGKIISLLEKCILAQPGDSPRFQAVLTIRGGESVFKIVEINDFKQLPHITLAFRPGNDSVVKQFLAFRLSEVKGTCHDLSDDLSRTRDDRDSMVAQLAQCRQQLAQLREQYDKHLLEVQAQAKTQQASAHEERIREKSQLKDQFEKERGEMEGRYRDQIAALNTRLGELDTENRKLREVKYELDTKVSELSHKLGSSEGSNRSLEEETARLRSLNQQLSSSKHELEIQLNEAKAKVLALDEKAQSQGDVIEQQRGRLRDMEAALRQTEQRCADLRDTLASAEGRAKEAQAEVLKGNQAIEKLTNDLRLAKEKTKRKAAIILRQEEELQEREQSLANATRDVGVLGQQAESLRKDVASLHSENDSLRSKLEDSKQQLQSNEQMIRWLNQQVTEAQLHASGAT
notes: SAS-6 of Chlamydomonas reinhardtii, N-terminal head domain and entire coiled-coil, residues 1-503; pFLOAT2-His vector, PreScission Protease site after the His tag; homodimers that assemble into ring polymers; source: E. coli BL21(DE3), purified (HisTrap, SEC)
For the protein B2, in data set [2], the binding result is recorded as “binds”.

B3: CrSAS-6_6HR-[F145E] (domain or fragment, Chlamydomonas reinhardtii, UniProt A9CQL4 1-226, looked up)
chain: MPLLLDDGDPKAQTGFDLSTATTLFWRPVPVHVKQQDREDVLEELTFRILTGVAKQNHNLRILRIHISSDSDLFFLHTLEVSEEDFQSLKNDQGILVDFASFPGKIISLLEKCILAQPGDSPRFQAVLTIRGGESVFKIVEINDEKQLPHITLAFRPGNDSVVKQFLAFRLSEVKGTCHDLSDDLSRTRDDRDSMVAQLAQCRQQLAQLREQYDKHLLEVQAQAKT
notes: SAS-6 of Chlamydomonas reinhardtii, residues 1-226 (limits as for CrSAS-6_6HR) with F145E; arranged as homodimers in the crystal; also called CrSAS-6_6HR harboring the mutation F145E; source: E. coli BL21(DE3), purified (HisTrap, tag cleavage by protease, SEC); not shown: His6, N-terminal, cleaved; AVI-tag, N-terminal, cleaved
With B3, the binding result in data set [1] is on record as “binds”.

B4: CrSAS-6_6HR, N-terminal domain and six heptad repeats of the coiled-coil of Chlamydomonas reinhardtii SAS-6 (domain or fragment, UniProt A9CQL4 1-226, looked up)
chain: B3 chain with E145F
notes: homodimer through the coiled-coil; source: E. coli BL21(DE3), purified (HisTrap, tag cleavage by protease, SEC); not shown: His6, N-terminal, cleaved; AVI-tag, N-terminal, cleaved
On to B4, for which the binding result in data set [1] was “binds”.
